Patent publication US20170037110A1 (IMMATICS BIOTECHNOLOGIES, published 2017)

Each binder was assayed against T1, HLA-A*02:01 (human) (assay: UV peptide exchange ELISA).
T1 construct: monomers captured on streptavidin plates; also called MHC class I
Method in brief: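 Read-out is an ELISA on the UV-exchange reaction: monomers, diluted 100-fold, are captured on streptavidin and the β2m light chain is detected with 2 μg/ml HRP antibody and TMB at 450 nm.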

Binder | peptide exchange yield
ALITEVVRL | 20 to 50%
FMIDASVHPTL | 50 to 75%
KLLEVSDDPQV | 50 to 75%
KIFDIDEAEEGV | 20 to 50%
YLDPALELGPRNV | 50 to 75%
ILLEHGADPNL | 50 to 75%
LLLLDTVTMQV | 20 to 50%
YLLHEKLNL | 50 to 75%
GLLEKLTAI | 50 to 75%
ALLEDSCHYL | 50 to 75%
LLIGHLERV | 50 to 75%
SLIEKVTQL | 50 to 75%
SLMEDQVLQL | 50 to 75%
VMFRTPLASV | 20 to 50%
FLVEKQPPQV | 50 to 75%
VLLSLLEKV | 20 to 50%
GLIEDYEALL | 50 to 75%
FLAKDFNFL | 50 to 75%
FLLEDDIHVS | 50 to 75%
SLFDGFADGLGV | 50 to 75%
SVAPNLPAV | 50 to 75%
QLIPALAKV | 50 to 75%
QLVPALAKV | 20 to 50%
GLNDRSDAV | 20 to 50%
YVLEDLEVTV | 20 to 50%

Binder | peptide exchange yield
QLCDLNAEL | 50 to 75%
ALLENPKMEL | 50 to 75%
SLIDKLYNI | 20 to 50%
KLDDLTQDLTV | 20 to 50%
FLAEDPKVTL | 50 to 75%
LLLNEEALAQI | 50 to 75%
SLAPGDVVRQV | 20 to 50%
LLINSVFHV | 50 to 75%
GLLRDEALAEV | 50 to 75%
GLWEIENNPTV | 50 to 75%
AMATESILHFA | 50 to 75%
KLAEGLDIQL | 50 to 75%
NVPDSFNEV | 50 to 75%
ALLPASGQIAL | 50 to 75%
KMWEELPEVV | 50 to 75%
SLLKEPQKVQL | 20 to 50%
NLLETKLQL | 50 to 75%
YLASDEITTV | 50 to 75%
GLLGEKTQDLIGV | 50 to 75%
VLIANLEKL | ≥ 75%
ALMERTGYSMV | 50 to 75%
RLLAQVPGL | 50 to 75%
YLRSVGDGETV | 50 to 75%
KLLGKVETA | 50 to 75%
AMLEKNYKL | ≥ 75%

Binder | peptide exchange yield
KLLPLAGLYL | ≥ 75%
GLSDGNPSL | 20 to 50%
KLLEATSAV | 20 to 50%
LLDPNVKSIFV | 50 to 75%
ALQPEPIKV | 20 to 50%
KINDTIYEV | 50 to 75%
GLLGGGGVLGV | 50 to 75%
ILVEADSLWVV | 50 to 75%
KLIDDQDISISL | 50 to 75%
FIFSEKPVFV | 50 to 75%
ALNDCIYSV | 50 to 75%
ALADGVTMQV | 20 to 50%
SLFGNSGILENV | 50 to 75%
FLLQHVQEL | 50 to 75%
SLNHFTHSV | 50 to 75%
AVMESIQGV | 50 to 75%
KLPPPPPQA | 50 to 75%
KLWTGGLDNTV | 50 to 75%
SLLPGNLVEKV | 50 to 75%
KLAKQPETV | 50 to 75%
YLYNNMIAKI | 50 to 75%
SLVESHLSDQLTL | 50 to 75%
YLLQEIYGI | 50 to 75%
